Measurements from US20070135335A1 (AUTOGEN RESEARCH, published 2007).

Columns and labels:
[1] = biological target: maltose binding protein (UniProt P0AEX9 27-396 = MBP); assay: SPR (Biacore J), Beacon immobilised on CM5 chip
Procedure: (§1) SPR analyses were performed with minor variations as described in Walder et al., 2002, supra using a Biacore J instrument (Biacore AB). Beacon was attached to a CM5 sensor chip at pH 5.5 by an amine coupling reaction. HBS-EP (10 mM Hepes pH 7.4/0.15 M NaCl/3 mM EDTA/0.005% Polysorbate 20) was used as running buffer. Flow cells 1 and 2 in the sensor chip were treated in the same manner except that ligand was absent in flow cell 2 which served as a reference cell. Binding experiments were performed in dual channel mode and the reference subtracted sensorgrams represented true binding patterns between ligand and analyte. Test samples diluted to 130 μl in running buffer were injected over a fixed duration of 4 min. For heat treatments, proteins were initially diluted to 20 μl in running buffer, incubated at 65 or 70° C. for 10 min, centrifuged for 30 sec, reconstituted to a final volume of 130 μl with running buffer and injected as usual. Between injections, chips were regenerated using 40 μl of 10 mM NaOH.

[2] = biological target: the molecule itself; assay: SPR (Biacore J), Beacon immobilised on CM5 chip
Procedure: as §1

[3] = biological target: T1, bovine serum albumin (bovine, UniProt P02769 25-607); assay: SPR (Biacore J), Beacon immobilised on CM5 chip
T1 construct: Unrelated control protein in SPR
T1 sequence (P02769 25-607 limits assumed): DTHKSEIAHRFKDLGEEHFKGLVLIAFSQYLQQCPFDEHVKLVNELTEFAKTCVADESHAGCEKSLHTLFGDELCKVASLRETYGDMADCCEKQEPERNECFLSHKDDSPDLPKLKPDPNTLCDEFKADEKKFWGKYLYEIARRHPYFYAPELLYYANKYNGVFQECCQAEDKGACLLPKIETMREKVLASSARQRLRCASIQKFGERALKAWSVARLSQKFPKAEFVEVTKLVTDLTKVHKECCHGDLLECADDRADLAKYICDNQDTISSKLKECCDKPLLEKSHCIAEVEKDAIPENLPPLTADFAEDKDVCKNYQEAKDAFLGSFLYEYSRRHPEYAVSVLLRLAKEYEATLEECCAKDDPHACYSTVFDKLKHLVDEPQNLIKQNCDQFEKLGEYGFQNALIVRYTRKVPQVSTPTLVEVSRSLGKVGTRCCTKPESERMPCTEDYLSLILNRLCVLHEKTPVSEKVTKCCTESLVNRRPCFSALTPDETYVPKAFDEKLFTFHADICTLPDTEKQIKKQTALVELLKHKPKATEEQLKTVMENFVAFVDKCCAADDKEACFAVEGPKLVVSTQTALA
Procedure: as §1

[4] = biological target: T2, GST (recombinant glutathione S-transferase, pGEX2T) (UniProt P08515 1-218 = GST); assay: SPR (Biacore J), Beacon immobilised on CM5 chip
T2 construct: Control protein in SPR
T2 sequence (P08515 whole entry): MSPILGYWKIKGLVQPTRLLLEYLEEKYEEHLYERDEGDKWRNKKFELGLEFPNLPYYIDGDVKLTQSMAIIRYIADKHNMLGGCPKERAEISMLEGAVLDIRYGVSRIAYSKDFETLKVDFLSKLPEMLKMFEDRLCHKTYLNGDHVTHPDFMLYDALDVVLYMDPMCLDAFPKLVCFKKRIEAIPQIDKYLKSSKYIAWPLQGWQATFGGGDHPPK
Procedure: as §1

[5] = biological target: T3, GST-CLK1 (recombinant human CLK1 fused to glutathione S-transferase, pGEX4T-1) (human, UniProt P49759 1-484); assay: SPR (Biacore J), Beacon immobilised on CM5 chip, GST-CLK as analyte
T3 construct: Expressed in E. coli BL21; whole entry named; not shown: glutathione S-transferase tag of expression vector pGEX4T-1
T3 sequence (P49759 whole entry, the tested form may be a part): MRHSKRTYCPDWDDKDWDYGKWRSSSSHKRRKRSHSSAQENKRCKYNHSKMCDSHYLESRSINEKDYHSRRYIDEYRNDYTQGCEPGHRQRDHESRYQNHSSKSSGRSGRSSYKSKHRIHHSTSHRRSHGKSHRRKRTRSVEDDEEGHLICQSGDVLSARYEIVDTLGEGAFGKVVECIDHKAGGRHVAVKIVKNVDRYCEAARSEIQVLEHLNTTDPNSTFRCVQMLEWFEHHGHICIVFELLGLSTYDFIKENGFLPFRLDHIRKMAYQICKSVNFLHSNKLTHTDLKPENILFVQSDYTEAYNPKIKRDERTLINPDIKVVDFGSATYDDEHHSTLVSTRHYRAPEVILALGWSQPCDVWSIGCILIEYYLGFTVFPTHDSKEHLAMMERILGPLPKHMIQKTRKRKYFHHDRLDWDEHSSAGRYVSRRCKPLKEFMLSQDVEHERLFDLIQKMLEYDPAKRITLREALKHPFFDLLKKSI
Procedure: (§2) FIG. 3 is a graphical representation showing the interaction between Beacon and human CLK1, 2 and 4. SPR analyses were performed as described in the Examples. Beacon immobilized on CM5 sensor chip generated 1800-2100 RU. Analyte samples injected and the heat treatments are as listed here:—
as §1

[6] = biological target: T4, GST-CLK4 (recombinant human CLK4 fused to glutathione S-transferase, pGEX4T-1) (human, UniProt Q9HAZ1 1-481); assay: as above
T4 construct: Expressed in E. coli BL21; whole entry named; not shown: glutathione S-transferase tag of expression vector pGEX4T-1
T4 sequence (Q9HAZ1 whole entry, the tested form may be a part): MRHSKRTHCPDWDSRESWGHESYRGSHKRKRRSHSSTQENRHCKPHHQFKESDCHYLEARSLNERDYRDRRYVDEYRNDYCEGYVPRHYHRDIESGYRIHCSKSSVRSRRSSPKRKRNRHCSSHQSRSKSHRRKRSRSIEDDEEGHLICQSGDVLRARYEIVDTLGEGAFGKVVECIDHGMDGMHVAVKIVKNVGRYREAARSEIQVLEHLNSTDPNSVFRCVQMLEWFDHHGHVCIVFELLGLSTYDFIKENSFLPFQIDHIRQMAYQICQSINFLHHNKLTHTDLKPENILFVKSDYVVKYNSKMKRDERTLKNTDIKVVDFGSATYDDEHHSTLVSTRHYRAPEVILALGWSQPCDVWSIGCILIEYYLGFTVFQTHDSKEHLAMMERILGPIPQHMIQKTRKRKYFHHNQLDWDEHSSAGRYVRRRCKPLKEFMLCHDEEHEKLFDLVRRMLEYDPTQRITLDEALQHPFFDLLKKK
Procedure: as §2, §1

[7] = biological target: T5, GST-CLK2 (recombinant human CLK2 fused to glutathione S-transferase, pGEX4T-1) (human, UniProt P49760 1-499); assay: as above
T5 construct: Expressed in E. coli BL21; whole entry named; not shown: glutathione S-transferase tag of expression vector pGEX4T-1
T5 sequence (P49760 whole entry, the tested form may be a part): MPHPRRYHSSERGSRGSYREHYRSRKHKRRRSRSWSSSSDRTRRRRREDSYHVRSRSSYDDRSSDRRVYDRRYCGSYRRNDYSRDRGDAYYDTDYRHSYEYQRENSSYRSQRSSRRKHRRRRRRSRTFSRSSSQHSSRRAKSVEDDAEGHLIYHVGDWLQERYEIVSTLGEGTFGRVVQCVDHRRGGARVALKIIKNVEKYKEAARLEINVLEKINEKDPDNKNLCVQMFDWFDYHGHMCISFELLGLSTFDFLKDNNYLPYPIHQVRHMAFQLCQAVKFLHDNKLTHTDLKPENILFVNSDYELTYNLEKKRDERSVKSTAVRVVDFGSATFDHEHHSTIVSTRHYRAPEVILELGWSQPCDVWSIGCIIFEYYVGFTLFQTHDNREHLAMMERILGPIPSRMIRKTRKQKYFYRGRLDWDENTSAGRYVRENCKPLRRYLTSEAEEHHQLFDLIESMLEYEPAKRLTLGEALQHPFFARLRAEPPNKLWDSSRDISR
Procedure: as §2, §1

B1: Beacon (recombinant, expressed as GST-Beacon in E. coli, GST tag cleaved off with thrombin) (ligand)
chain: MIEVVCNDRLGKKVRVKCNTDDTIGDLKKLIAAQTGTRWNKIVLKKWYTIFKDHVSLGDYEIHDGMNLELYYQ
notes: Immobilised on a CM5 chip by amine coupling (SPR); also injected as analyte over itself
[1]
  binding result: no binding
[2]
  binding result: no binding
[3]
  binding result: no binding
[4]
  binding result: no binding
[5]
  binding result: binds
[6]
  binding result: binds
[7]
  binding result: binds
